Experimental data: US20020155533A1 (Takeda / Millennium, published 2002)
“And” between values parts separate entries of the source, which are not always exact repeats. Identical values can stand only once. Where no end group is shown, it is not given here.

Columns and labels:
[1] = molecular target: bovine PACAP receptor protein from bovine cerebrum (bovine) (UniProt Q29627); experiment: radioligand
[2] = molecular target: T1, rat PACAP receptor protein Type I-B (pRPR4-B, derived from pRPACAPR12), expressed in CHO or Sf9 cells (rat, UniProt P32215 20-523); experiment: competition with 100 pM [125I]-PACAP27, membrane fraction of pRPR4-B-introduced CHO cells (FIG. 40B)
T1 construct: also called pRPR4-B-introduced CHO cells; clone B17
T1 sequence: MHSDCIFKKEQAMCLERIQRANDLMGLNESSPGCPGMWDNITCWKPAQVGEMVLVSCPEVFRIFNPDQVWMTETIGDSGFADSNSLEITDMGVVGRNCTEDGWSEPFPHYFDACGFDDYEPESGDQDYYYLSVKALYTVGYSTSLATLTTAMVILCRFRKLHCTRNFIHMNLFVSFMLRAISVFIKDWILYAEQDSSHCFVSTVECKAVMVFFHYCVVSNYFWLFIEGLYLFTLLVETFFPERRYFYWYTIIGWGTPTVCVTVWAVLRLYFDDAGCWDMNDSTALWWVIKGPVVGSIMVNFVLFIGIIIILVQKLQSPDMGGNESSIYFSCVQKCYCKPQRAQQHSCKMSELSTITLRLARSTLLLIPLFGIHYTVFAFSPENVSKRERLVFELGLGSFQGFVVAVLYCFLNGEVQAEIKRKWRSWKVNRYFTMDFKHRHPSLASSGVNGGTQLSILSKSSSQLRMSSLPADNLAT
Protocol: (§1) The pRPR3-A-introduced and pRPR4-B-introduced CHO cells obtained in (2) described above were each disrupted in sodium carbonate buffer containing 1 mM EDTA, 0.5 mM PMSF, 20 μg/ml leupeptin, 4 μg/ml E-64 and 1 μg/ml pepstatin with a Polytron homogenizer (Kinematica) to prepare membrane fractions. Using the membrane fractions, complex binding experiments were conducted. […] The reaction was conducted at 25° C. for 1 hour, and bound ligands were separated from free ligands by filtration through a filter. […] The amount of bound ligands was measured with a γ-counter.

[3] = molecular target: T2, rat PACAP receptor protein Type I-A (pRPR3-A, derived from pRPACAPR46-5), expressed in CHO or Sf9 cells (rat, UniProt P32215 20-523); experiment: competition with 100 pM [125I]-PACAP27, membrane fraction of pRPR3-A-introduced CHO cells (FIG. 40A)
T2 construct: also called pRPR3-A-introduced CHO cells; clone A12
T2 sequence: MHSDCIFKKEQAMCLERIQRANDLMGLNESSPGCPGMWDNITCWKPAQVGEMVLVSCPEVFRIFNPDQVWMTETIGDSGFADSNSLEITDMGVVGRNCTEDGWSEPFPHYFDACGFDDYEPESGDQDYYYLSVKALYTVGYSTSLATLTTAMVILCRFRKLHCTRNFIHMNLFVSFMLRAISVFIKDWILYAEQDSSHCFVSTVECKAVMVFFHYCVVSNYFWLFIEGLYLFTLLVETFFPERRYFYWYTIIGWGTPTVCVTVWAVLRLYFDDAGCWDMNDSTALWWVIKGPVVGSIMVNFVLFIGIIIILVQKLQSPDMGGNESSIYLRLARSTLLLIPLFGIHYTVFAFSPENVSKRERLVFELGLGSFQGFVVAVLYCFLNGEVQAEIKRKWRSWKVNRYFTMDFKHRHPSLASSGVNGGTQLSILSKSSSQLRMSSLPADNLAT
Protocol: as §1

[4] = molecular target: bovine PACAP receptor protein from bovine cerebrum (bovine) (UniProt Q29627); experiment: saturation binding experiment; fraction: Avidin-agarose
[5] = molecular target: bovine PACAP receptor protein from bovine cerebrum (bovine) (UniProt Q29627); experiment: saturation binding experiment; fraction: Solubilized product
[6] = molecular target: bovine PACAP receptor protein from bovine cerebrum (bovine) (UniProt Q29627); experiment: saturation binding experiment; fraction: Hydroxyapatite
[7] = molecular target: T1, rat PACAP receptor protein Type I-B …; experiment: 100 pM [125I]-PACAP27 on whole CHO cells, gamma counting (FIG. 39)
Protocol: (§2) The cells were incubated until they covered the bottom surface of the tissue culture plates completely. […] The cells were washed twice with a buffer for the binding experiment [Hank's solution (pH 7.4) containing 5 mM HEPES, 5% CRAPS and 0.1% BSA]. […] After incubation at 37° C. for 1 hour, the cells washed three times with the buffer for the binding experiment were dissolved with 1 ml of 0.5 N NaOH and 0.1% SDS for each well, and the radioactivity contained therein was measured with a γ-counter.

[8] = molecular target: T2, rat PACAP receptor protein Type I-A …; experiment: as above
Protocol: as §2

[9] = molecular target: bovine PACAP receptor protein from bovine cerebrum (bovine) (UniProt Q29627); experiment: saturation binding experiment; fraction: Membrane fraction
[10] = molecular target: bovine PACAP receptor protein from bovine cerebrum (bovine) (UniProt Q29627); experiment: saturation binding experiment; fraction: Gel filtration (final purified sample)
[11] = molecular target: bovine PACAP receptor protein from bovine cerebrum (bovine) (UniProt Q29627); experiment: saturation binding experiment; fraction: Micro hydroxyapatite
[12] = molecular target: T3, bovine PACAP receptor protein Type I-A encoded by pBPR-T, expressed in CHO cells (UniProt Q29627 38-513); experiment: radioligand
T3 chain: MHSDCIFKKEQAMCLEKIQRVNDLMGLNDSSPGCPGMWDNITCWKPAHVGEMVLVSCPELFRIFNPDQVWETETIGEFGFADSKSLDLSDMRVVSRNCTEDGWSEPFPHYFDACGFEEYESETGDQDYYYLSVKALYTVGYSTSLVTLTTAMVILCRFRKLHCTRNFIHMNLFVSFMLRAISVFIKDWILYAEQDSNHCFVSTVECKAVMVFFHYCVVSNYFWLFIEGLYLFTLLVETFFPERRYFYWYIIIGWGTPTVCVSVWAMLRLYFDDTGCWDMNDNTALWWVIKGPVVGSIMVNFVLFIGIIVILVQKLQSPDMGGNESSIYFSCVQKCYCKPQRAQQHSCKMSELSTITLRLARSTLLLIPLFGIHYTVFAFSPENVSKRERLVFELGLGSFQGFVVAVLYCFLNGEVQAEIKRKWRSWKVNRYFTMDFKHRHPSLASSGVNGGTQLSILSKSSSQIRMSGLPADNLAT

[13] = molecular target: bovine PACAP receptor protein from bovine cerebrum (bovine) (UniProt Q29627); experiment: saturation binding experiment; fraction: Ion exchange

## [^125I]-PACAP27
[1]
  Kd: 0.029 nM and 0.03 nM

B1: PACAP27 (peptide)
peptide: HSDGIFTDSYSRYRKQMAVKKYLAAVL-NH2
notes: also called unlabeled PACAP27; cold PACAP27
[2]
  binding result: binds
[3]
  binding result: binds

B2: [^125I]-PACAP27 (peptide)
peptide: HSDGIFTDSYSRYRKQMAVKKYLAAVL-NH2
modifications: also: 125I label on one Tyr, which one not given here
notes: also called radioactive iodine-labelled PACAP27
[4]
  Total activity (maximum binding of [125I]PACAP27): 2040 pmol
[5]
  Specific activity: 1.9 pmol/mg
  Total activity (maximum binding of [125I]PACAP27): 4560 pmol
[6]
  Specific activity: 25 pmol/mg
  Total activity (maximum binding of [125I]PACAP27): 3350 pmol
[7]
  binding result: binds
[8]
  binding result: binds
[9]
  Specific activity: 1.3 pmol/mg
  Total activity (maximum binding of [125I]PACAP27): 8120 pmol
[10]
  Specific activity: 16000 pmol/mg
  Total activity (maximum binding of [125I]PACAP27): 671 pmol
[11]
  Total activity (maximum binding of [125I]PACAP27): 1720 pmol
[12]
  Kd: 0.103 nM
[13]
  Specific activity: 9.9 pmol/mg
  Total activity (maximum binding of [125I]PACAP27): 4700 pmol
